Literature values in paper PMC11349558.

Target: histone H4 (UniProt P62805)

- Kd: 2 nM
Substance: fibrinogen D-domain (from UniProt P02671)
